Results published in patent US20120316071A1 (published 2012).

target: T1, Recombinant Human DLL4 (delta-like protein 4) (human, UniProt Q9NR61 27-524); experiment: ECL (MSD) multispot binding assay, antigen spotted on plate, Fab in solution;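 also: purified Fab incubated 1 h at 20 °C, detected via TAG-labelled antibody electrochemiluminescence, antigen spot compared with the blank in the same well, ratio at least 4 counted as hit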
T1 construct: Bought recombinant human DLL4 (R&D Systems Cat#1506-D4/CF); also called rHuman DLL4

Binder	Signal/Blank	ECL signal
Fab VH1-46_IGHD6-6*01_IGHJ1*01 S102A/S103P/S104F/H111F (APFF) & L6_IGKJ1*01 S31D (Fab, V domains shown, Fab made in E. coli; The constant parts (CH1 with His6 and Flag tags from plasmid A, kappa CL from plasmid C) are not added here; also called APFF & S31D) VH: QVQLVQSGAEVKKPGASVKVSCKASGYTFTSYYMHWVRQAPGQGLEWMGIINPSGGSTSYAQKFQGRVTMTRDTSTSTVYMELSSLRSEDTAVYYCAREEYAPFSAEYFQFWGQGTLVTVSS VL: EIVLTQSPATLSLSPGERATLSCRASQSVSDYLAWYQQKPGQAPRLLIYDASNRATGIPARFSGSGSGTDFTLTISSLEPEDFAVYYCQQRSNWPPWTFGQGTKVEIKR	313	–
Fab VH1-46_IGHD6-6*01_IGHJ1*01 S102A/S103P/S104F/H111F (APFF) & L6_IGKJ1*01 S31E (Fab, V domains shown, Fab made in E. coli; The constant parts (CH1 with His6 and Flag tags from plasmid A, kappa CL from plasmid C) are not added here; also called APFF & S31E) VH: QVQLVQSGAEVKKPGASVKVSCKASGYTFTSYYMHWVRQAPGQGLEWMGIINPSGGSTSYAQKFQGRVTMTRDTSTSTVYMELSSLRSEDTAVYYCAREEYAPFSAEYFQFWGQGTLVTVSS VL: EIVLTQSPATLSLSPGERATLSCRASQSVSEYLAWYQQKPGQAPRLLIYDASNRATGIPARFSGSGSGTDFTLTISSLEPEDFAVYYCQQRSNWPPWTFGQGTKVEIKR	517	171000
Fab VH1-46_IGHD6-6*01_IGHJ1*01 S102A/S103P/S104F/H111F (APFF) & L6_IGKJ1*01 S31F (Fab, V domains shown, Fab made in E. coli; The constant parts (CH1 with His6 and Flag tags from plasmid A, kappa CL from plasmid C) are not added here; also called APFF & S31F) VH: QVQLVQSGAEVKKPGASVKVSCKASGYTFTSYYMHWVRQAPGQGLEWMGIINPSGGSTSYAQKFQGRVTMTRDTSTSTVYMELSSLRSEDTAVYYCAREEYAPFSAEYFQFWGQGTLVTVSS VL: EIVLTQSPATLSLSPGERATLSCRASQSVSFYLAWYQQKPGQAPRLLIYDASNRATGIPARFSGSGSGTDFTLTISSLEPEDFAVYYCQQRSNWPPWTFGQGTKVEIKR	459	–
Fab VH1-46_IGHD6-6*01_IGHJ1*01 S102A/S103P/S104F/H111F (APFF) & L6_IGKJ1*01 S31H (Fab, V domains shown, Fab made in E. coli; The constant parts (CH1 with His6 and Flag tags from plasmid A, kappa CL from plasmid C) are not added here; also called APFF & S31H) VH: QVQLVQSGAEVKKPGASVKVSCKASGYTFTSYYMHWVRQAPGQGLEWMGIINPSGGSTSYAQKFQGRVTMTRDTSTSTVYMELSSLRSEDTAVYYCAREEYAPFSAEYFQFWGQGTLVTVSS VL: EIVLTQSPATLSLSPGERATLSCRASQSVSHYLAWYQQKPGQAPRLLIYDASNRATGIPARFSGSGSGTDFTLTISSLEPEDFAVYYCQQRSNWPPWTFGQGTKVEIKR	838	–
Fab VH1-46_IGHD6-6*01_IGHJ1*01 S102A/S103P/S104F/H111F (APFF) & L6_IGKJ1*01 S31I (Fab, V domains shown, Fab made in E. coli; The constant parts (CH1 with His6 and Flag tags from plasmid A, kappa CL from plasmid C) are not added here; also called APFF & S31I) VH: QVQLVQSGAEVKKPGASVKVSCKASGYTFTSYYMHWVRQAPGQGLEWMGIINPSGGSTSYAQKFQGRVTMTRDTSTSTVYMELSSLRSEDTAVYYCAREEYAPFSAEYFQFWGQGTLVTVSS VL: EIVLTQSPATLSLSPGERATLSCRASQSVSIYLAWYQQKPGQAPRLLIYDASNRATGIPARFSGSGSGTDFTLTISSLEPEDFAVYYCQQRSNWPPWTFGQGTKVEIKR	541	–
Fab VH1-46_IGHD6-6*01_IGHJ1*01 S102A/S103P/S104F/H111F (APFF) & L6_IGKJ1*01 S31K (Fab, V domains shown, Fab made in E. coli; The constant parts (CH1 with His6 and Flag tags from plasmid A, kappa CL from plasmid C) are not added here; also called APFF & S31K) VH: QVQLVQSGAEVKKPGASVKVSCKASGYTFTSYYMHWVRQAPGQGLEWMGIINPSGGSTSYAQKFQGRVTMTRDTSTSTVYMELSSLRSEDTAVYYCAREEYAPFSAEYFQFWGQGTLVTVSS VL: EIVLTQSPATLSLSPGERATLSCRASQSVSKYLAWYQQKPGQAPRLLIYDASNRATGIPARFSGSGSGTDFTLTISSLEPEDFAVYYCQQRSNWPPWTFGQGTKVEIKR	351	179000
Fab VH1-46_IGHD6-6*01_IGHJ1*01 S102A/S103P/S104F/H111F (APFF) & L6_IGKJ1*01 S31L (Fab, V domains shown, Fab made in E. coli; The constant parts (CH1 with His6 and Flag tags from plasmid A, kappa CL from plasmid C) are not added here; also called APFF & S31L) VH: QVQLVQSGAEVKKPGASVKVSCKASGYTFTSYYMHWVRQAPGQGLEWMGIINPSGGSTSYAQKFQGRVTMTRDTSTSTVYMELSSLRSEDTAVYYCAREEYAPFSAEYFQFWGQGTLVTVSS VL: EIVLTQSPATLSLSPGERATLSCRASQSVSLYLAWYQQKPGQAPRLLIYDASNRATGIPARFSGSGSGTDFTLTISSLEPEDFAVYYCQQRSNWPPWTFGQGTKVEIKR	373	–
Fab VH1-46_IGHD6-6*01_IGHJ1*01 S102A/S103P/S104F/H111F (APFF) & L6_IGKJ1*01 S31M (Fab, V domains shown, Fab made in E. coli; The constant parts (CH1 with His6 and Flag tags from plasmid A, kappa CL from plasmid C) are not added here; also called APFF & S31M) VH: QVQLVQSGAEVKKPGASVKVSCKASGYTFTSYYMHWVRQAPGQGLEWMGIINPSGGSTSYAQKFQGRVTMTRDTSTSTVYMELSSLRSEDTAVYYCAREEYAPFSAEYFQFWGQGTLVTVSS VL: EIVLTQSPATLSLSPGERATLSCRASQSVSMYLAWYQQKPGQAPRLLIYDASNRATGIPARFSGSGSGTDFTLTISSLEPEDFAVYYCQQRSNWPPWTFGQGTKVEIKR	378	–
Fab VH1-46_IGHD6-6*01_IGHJ1*01 S102A/S103P/S104F/H111F (APFF) & L6_IGKJ1*01 S31N (Fab, V domains shown, Fab made in E. coli; The constant parts (CH1 with His6 and Flag tags from plasmid A, kappa CL from plasmid C) are not added here; also called APFF & S31N) VH: QVQLVQSGAEVKKPGASVKVSCKASGYTFTSYYMHWVRQAPGQGLEWMGIINPSGGSTSYAQKFQGRVTMTRDTSTSTVYMELSSLRSEDTAVYYCAREEYAPFSAEYFQFWGQGTLVTVSS VL: EIVLTQSPATLSLSPGERATLSCRASQSVSNYLAWYQQKPGQAPRLLIYDASNRATGIPARFSGSGSGTDFTLTISSLEPEDFAVYYCQQRSNWPPWTFGQGTKVEIKR	605	178000
Fab VH1-46_IGHD6-6*01_IGHJ1*01 S102A/S103P/S104F/H111F (APFF) & L6_IGKJ1*01 S31P (Fab, V domains shown, Fab made in E. coli; The constant parts (CH1 with His6 and Flag tags from plasmid A, kappa CL from plasmid C) are not added here; also called APFF & S31P) VH: QVQLVQSGAEVKKPGASVKVSCKASGYTFTSYYMHWVRQAPGQGLEWMGIINPSGGSTSYAQKFQGRVTMTRDTSTSTVYMELSSLRSEDTAVYYCAREEYAPFSAEYFQFWGQGTLVTVSS VL: EIVLTQSPATLSLSPGERATLSCRASQSVSPYLAWYQQKPGQAPRLLIYDASNRATGIPARFSGSGSGTDFTLTISSLEPEDFAVYYCQQRSNWPPWTFGQGTKVEIKR	156	–
Fab VH1-46_IGHD6-6*01_IGHJ1*01 S102A/S103P/S104F/H111F (APFF) & L6_IGKJ1*01 S31Q (Fab, V domains shown, Fab made in E. coli; The constant parts (CH1 with His6 and Flag tags from plasmid A, kappa CL from plasmid C) are not added here; also called APFF & S31Q) VH: QVQLVQSGAEVKKPGASVKVSCKASGYTFTSYYMHWVRQAPGQGLEWMGIINPSGGSTSYAQKFQGRVTMTRDTSTSTVYMELSSLRSEDTAVYYCAREEYAPFSAEYFQFWGQGTLVTVSS VL: EIVLTQSPATLSLSPGERATLSCRASQSVSQYLAWYQQKPGQAPRLLIYDASNRATGIPARFSGSGSGTDFTLTISSLEPEDFAVYYCQQRSNWPPWTFGQGTKVEIKR	406	165000
